One molecule from US20170305994A1 (Novo Nordisk, published 2017) can be followed below.

Where a chain is given by its changes, count along the chain named. Names and notes keep the numbering of the source.

The target of assay [1] is T1, human DR3 with the death domain deleted (ΔM339-P417 of SEQ ID NO:1), expressed on CHOK1SV cells (human, UniProt Q93038 25-338).
T1 construct: also called truncated DR3; hDR3 expressing CHO cells
T1 sequence: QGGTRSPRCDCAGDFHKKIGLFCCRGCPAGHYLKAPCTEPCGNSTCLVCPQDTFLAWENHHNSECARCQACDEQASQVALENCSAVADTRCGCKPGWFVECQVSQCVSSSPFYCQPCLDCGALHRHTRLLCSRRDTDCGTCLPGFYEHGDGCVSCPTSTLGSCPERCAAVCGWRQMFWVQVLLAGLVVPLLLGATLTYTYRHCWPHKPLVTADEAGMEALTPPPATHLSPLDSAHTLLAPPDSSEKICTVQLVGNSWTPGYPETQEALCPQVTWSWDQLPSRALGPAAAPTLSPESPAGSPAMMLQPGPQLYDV
The assay is described as follows: FACS on DR3 expressing cells; competitor Mab 0107.

A further assay has as its target T2, human DR3 R29Q (human, UniProt Q93038 25-417).
T2 sequence: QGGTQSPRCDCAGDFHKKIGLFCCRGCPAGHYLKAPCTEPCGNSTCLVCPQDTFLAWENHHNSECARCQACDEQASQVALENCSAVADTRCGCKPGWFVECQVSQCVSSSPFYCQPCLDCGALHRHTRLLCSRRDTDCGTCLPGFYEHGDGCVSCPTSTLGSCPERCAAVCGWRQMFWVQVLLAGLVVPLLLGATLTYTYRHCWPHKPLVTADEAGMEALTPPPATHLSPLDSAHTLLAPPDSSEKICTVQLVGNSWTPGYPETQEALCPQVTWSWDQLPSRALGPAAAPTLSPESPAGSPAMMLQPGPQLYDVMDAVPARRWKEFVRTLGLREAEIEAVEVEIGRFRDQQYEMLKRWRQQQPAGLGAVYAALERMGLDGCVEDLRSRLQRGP
Description: cell-based or functional assay.

Assay [2] addresses T3, human DR3 (full length, on cells) (human, UniProt Q93038 25-417).
T3 sequence: T2 sequence with Q5R
The assay is described as follows: cell-based or functional assay.

The target of another assay is T4, human DR3 I43N/L45V (human, UniProt Q93038 25-417).
T4 chain: T2 sequence with Q5R, I19N, L21V
The assay is described as follows: cell-based or functional assay.

Another assay concerns the target T5, human DR3 L45V (human, UniProt Q93038 25-417).
T5 sequence: T2 sequence with Q5R, L21V
The assay is described as follows: cell-based or functional assay.

The next assay addresses T6, human DR3 I43N (human, UniProt Q93038 25-417).
T6 sequence: T2 sequence with Q5R, I19N
Description: cell-based or functional assay.

B1: 0228 (humanized Fab of 27F44, IgG4, hz0072VH S49A / hz0072VL) (Fab, V domains shown)
VH: EVQLVESGGGLVQPGGSLRLSCAASGFTFSNYDMSWVRQATGKGLEWVAAFSSDGYTFYPGSVKGRFTISRENAKNSLYLQMNSLRAGDTAVYYCARHADYANYPVMDYWGQGTLVTVSS
VL: DIQMTQSPSSLSASVGDRVTITCRASKSVSTSGYSYMHWYQQKPGKAPKLLIYLASNLESGVPSRFSGSGSGTDFTLTISSLQPEDFATYYCQHSRELPLTFGGGTKVEIKR
notes: IgG4-Cys, hz (humanized IgG4 Fab with the hinge cysteine kept)
Take B1: the “molar ratio Mab/Fab from which the Fab inhibits” value in assay [1] was 1 Fab per Mab (molar ratio Mab/Fab 1:n). Moreover, the “IC50 of Fab upon stimulation by TL1A, transient reporter” value came out at 0.372 nM with human DR3 R29Q; 0.645 nM in assay [2]; 149 nM with human DR3 I43N/L45V; 2 nM in the assay with human DR3 L45V; 68 nM in the assay with human DR3 I43N.
